For assay [1], the target named is recombinant SCM (Streptococcus canis M protein), mature wild type (Streptococcus canis (strain G361)). The assay can be described thus: SPR. (Surface plasmon resonance follows binding to a sensor surface in real time, without labels.)
For assay [2], the target named is SCM on the surface of S. canis strain G361 (Streptococcus canis (endogenous in strain G361)). Briefly: radioligand binding; inhibition: S. canis G361 with iodinated full-length SCM after pre-incubation with non-iodinated SCM, N-225 or C-226 (5 µg in the text, 1 µM in the legend).
Assay [3] has the same target. The assay can be described thus: radioligand binding; iodinated protein (chloramine T) incubated with whole bacteria; percentage binding of totally used iodinated protein.

Here are results for 4 substances from article PMC6527014.

On to “recombinant SCM (Streptococcus canis M protein), mature wild type”, for which the Kd in assay [1] (natural protein) is 4120 nM.

In turn, SCM fragment N-225 (domain or fragment) gave a percent of iodinated SCM bound to G361 with the unlabelled competitor in assay [2] of 6.8%.

In the case of SCM fragment N-225, in assay [1] (domain or fragment), the Kd was 58.5 nM.

Take “recombinant SCM (Streptococcus canis M protein), mature wild type (natural protein)”: the percent of the iodinated protein bound in assay [3] worked out at 24.1%. Further, the percent of iodinated SCM bound to G361 with the unlabelled competitor in assay [2] worked out at 4.4%.

Broadly, the Kd is the equilibrium constant for the complex coming apart.
